According to patent publication EP1899377B1 (GLAXO GROUP LIMITED, dated 2012):
Positions count from the first letter of the chain named.

T1: GST-human NOGO-A56 (human, UniProt Q9NQC3 586-785)
T1 construct: GST-tagged fusion expressed in E. coli BL21 from pGEX-6P1; also called hNOGO; human NOGO 5+6 GST; not shown: Glutathione S-transferase tag encoded by vector pGEX-6P1 (N-terminal, with vector linker)
T1 sequence: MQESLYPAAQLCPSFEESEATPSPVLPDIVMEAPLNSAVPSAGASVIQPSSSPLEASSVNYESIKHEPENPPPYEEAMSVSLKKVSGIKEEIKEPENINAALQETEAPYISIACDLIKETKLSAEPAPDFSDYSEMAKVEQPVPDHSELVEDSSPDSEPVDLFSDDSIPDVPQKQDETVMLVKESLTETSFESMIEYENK

B1: HcLc (antibody, human IgG1, kappa, V domains shown)
VH: QVQLQQPGTELVKPGASVKLSCKASGYTFTSYWMHWVKQRPGQGLEWIGNINPSNGGTNYNEKFKSKATLTVDKSSSTAYMQLSSLTSEDSAVYYCELGQGYWGQGTLVTVSS
VL: DIVITQDELSNPVTSGESVSISCRSSKSLLYKDGKTYLNWFLQRPGQSPQLLIYLMSTRASGVSDRFSGSGSGTDFTLEISRVKAEDVGVYYCQQLVEYPLTFGAGTKLELKR
notes: also called chimera of 2A10; 2A10 chimeric antibody
B2: H22L16 (antibody, human IgG1, kappa, V domains shown)
VH: QVQLVQSGAEVKKPGASVKVSCKASGYTFTSYWMHWVKQRPGQGLEWIGNINPSNGGTNYNEKFKSKATMTRDTSTSTAYMELSSLRSEDTAVYYCELGQGYWGQGTLVTVSS
VL: DIVMTQSPLSNPVTLGQPVSISCRSSKSLLYKDGKTYLNWFLQRPGQSPQLLIYLMSTRASGVPDRFSGGGSGTDFTLKISRVEAEDVGVYYCQQLVEYPLTFGQGTKLEIKR
notes: human gamma1 mutated constant region, human kappa
B3: H1L11 (antibody, human IgG1, kappa, V domains shown)
VH: B2 VH with K38R, R40A, I48M, K67R, A68V, A79V
VL: B2 VL with M4I, N11L, V19A, L42Q
B4: H6L13 (antibody, human IgG1, kappa, V domains shown)
VH: B2 VH with K38R, R40A, K67R
VL: B2 VL with N11L, V19A, L42Q
B5: H20L16 (antibody, human IgG1, kappa, V domains shown)
VH: B2 VH with K38R, R40A
VL: B2 VL
notes: human gamma1 mutated constant region, human kappa; also called H20L16 FL
B6: H24L16 (antibody, human IgG1, kappa, V domains shown)
VH: B2 VH with M70L, R72V
VL: B2 VL
notes: as for B2
B7: H23L16 (antibody, human IgG1, kappa, V domains shown)
VH: B2 VH with R72V
VL: B2 VL
notes: as for B2
B8: H16L16 (antibody, human IgG1, kappa)
heavy: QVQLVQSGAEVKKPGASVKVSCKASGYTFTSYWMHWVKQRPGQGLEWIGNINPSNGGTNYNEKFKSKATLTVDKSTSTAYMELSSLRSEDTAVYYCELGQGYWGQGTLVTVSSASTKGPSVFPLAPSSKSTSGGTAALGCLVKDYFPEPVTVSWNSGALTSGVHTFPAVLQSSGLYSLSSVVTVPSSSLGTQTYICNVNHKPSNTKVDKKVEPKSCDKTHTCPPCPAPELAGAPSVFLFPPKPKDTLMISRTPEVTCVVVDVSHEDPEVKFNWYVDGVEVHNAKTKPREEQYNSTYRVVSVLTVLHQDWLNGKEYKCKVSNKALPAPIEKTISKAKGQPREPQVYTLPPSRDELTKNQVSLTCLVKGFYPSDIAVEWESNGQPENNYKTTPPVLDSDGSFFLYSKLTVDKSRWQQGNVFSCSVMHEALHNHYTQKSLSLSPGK
light: DIVMTQSPLSNPVTLGQPVSISCRSSKSLLYKDGKTYLNWFLQRPGQSPQLLIYLMSTRASGVPDRFSGGGSGTDFTLKISRVEAEDVGVYYCQQLVEYPLTFGQGTKLEIKRTVAAPSVFIFPPSDEQLKSGTASVVCLLNNFYPREAKVQWKVDNALQSGNSQESVTEQDSKDSTYSLSSTLTLSKADYEKHKVYACEVTHQGLSSPVTKSFNRGEC
B9: H16L13 (antibody, human IgG1, kappa)
heavy: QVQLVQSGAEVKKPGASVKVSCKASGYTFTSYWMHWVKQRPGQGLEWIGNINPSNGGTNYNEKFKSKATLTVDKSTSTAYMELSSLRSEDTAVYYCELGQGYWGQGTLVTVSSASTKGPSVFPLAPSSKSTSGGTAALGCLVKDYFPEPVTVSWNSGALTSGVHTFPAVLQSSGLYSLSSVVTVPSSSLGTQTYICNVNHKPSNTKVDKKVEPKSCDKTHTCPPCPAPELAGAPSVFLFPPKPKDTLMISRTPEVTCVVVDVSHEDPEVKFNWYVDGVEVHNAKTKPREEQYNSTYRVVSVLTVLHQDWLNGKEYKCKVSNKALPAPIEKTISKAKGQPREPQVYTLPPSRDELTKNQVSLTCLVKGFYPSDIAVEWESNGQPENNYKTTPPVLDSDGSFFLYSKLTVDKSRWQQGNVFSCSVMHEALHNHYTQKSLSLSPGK
light: B8 light with N11L, V19A, L42Q
B10: H23Lc (antibody, human IgG1, kappa, V domains shown)
VH: B2 VH with R72V
VL: B1 VL
B11: H21Lc (antibody, human IgG1, kappa, V domains shown)
VH: B2 VH with K38R
VL: B1 VL
B12: H19Lc (antibody, human IgG1, kappa, V domains shown)
VH: B2 VH with K38R, K67R
VL: B1 VL
B13: H20Lc (antibody, human IgG1, kappa, V domains shown)
VH: B2 VH with K38R, R40A
VL: B1 VL
B14: H24Lc (antibody, human IgG1, kappa, V domains shown)
VH: B2 VH with M70L, R72V
VL: B1 VL
B15: H21L13 (antibody, human IgG1, kappa, V domains shown)
VH: B2 VH with K38R
VL: B2 VL with N11L, V19A, L42Q
B16: H19L13 (antibody, human IgG1, kappa, V domains shown)
VH: B2 VH with K38R, K67R
VL: B2 VL with N11L, V19A, L42Q
B17: H19L16 (antibody, human IgG1, kappa, V domains shown)
VH: B2 VH with K38R, K67R
VL: B2 VL
B18: H16L18 (antibody, human IgG1, kappa, V domains shown)
VH: B2 VH with M70L, R72V, T74K
VL: B2 VL with S7D, P64S, G70S
B19: H23L13 (antibody, human IgG1, kappa, V domains shown)
VH: B2 VH with R72V
VL: B2 VL with N11L, V19A, L42Q
B20: H22Lc (antibody, human IgG1, kappa, V domains shown)
VH: B2 VH
VL: B1 VL
B21: H24L13 (antibody, human IgG1, kappa, V domains shown)
VH: B2 VH with M70L, R72V
VL: B2 VL with N11L, V19A, L42Q

Each binder was assayed against T1, GST-human NOGO-A56 (assay: SPR (Biacore), GST-human NOGO-A56 immobilised, purified antibody as analyte; single experiment).

Kd	koff	kon	Binder
1.7 nM	0.0044 s⁻¹	2.6e+06 M⁻¹ s⁻¹	B1
1.47 nM	0.0069 s⁻¹	4.9e+06 M⁻¹ s⁻¹	B2
22.3 nM	0.031 s⁻¹	1.4e+06 M⁻¹ s⁻¹	B3
6.4 nM	0.014 s⁻¹	2.2e+06 M⁻¹ s⁻¹	B4
1.7 nM	0.0073 s⁻¹	4.4e+06 M⁻¹ s⁻¹	B5
3.7 nM	0.0069 s⁻¹	1.9e+06 M⁻¹ s⁻¹	B6
3.8 nM	0.0064 s⁻¹	1.9e+06 M⁻¹ s⁻¹	B7

What follows are binders tested against T1, GST-human NOGO-A56 (assay: SPR (Biacore), GST-human NOGO-A56 immobilised, purified antibody as analyte; single experiment (value said to be not typical)).

Kd	koff	kon	Binder
3.4 nM	0.004 s⁻¹	1.2e+06 M⁻¹ s⁻¹	B8

Target: T1, GST-human NOGO-A56
Assay: SPR (Biacore), GST-human NOGO-A56 immobilised, purified antibody as analyte; single experiment
Remark: another data set of the same source

Kd	koff	kon	Binder
1.42 nM	0.0035 s⁻¹	2.46e+06 M⁻¹ s⁻¹	B1
1.32 nM	0.00767 s⁻¹	5.83e+06 M⁻¹ s⁻¹	B2
21 nM	0.0282 s⁻¹	1.34e+06 M⁻¹ s⁻¹	B3
7.76 nM	0.0157 s⁻¹	2.02e+06 M⁻¹ s⁻¹	B4
1.61 nM	0.00847 s⁻¹	5.24e+06 M⁻¹ s⁻¹	B5
2.49 nM	0.00572 s⁻¹	2.3e+06 M⁻¹ s⁻¹	B6
1.99 nM	0.00587 s⁻¹	2.95e+06 M⁻¹ s⁻¹	B7

Target: T1, GST-human NOGO-A56
Assay: as above
Remark: another data set of the same source

Kd	koff	kon	Binder
1.59 nM	0.00369 s⁻¹	2.32e+06 M⁻¹ s⁻¹	B1
1.33 nM	0.00759 s⁻¹	5.69e+06 M⁻¹ s⁻¹	B2
18.4 nM	0.0219 s⁻¹	1.19e+06 M⁻¹ s⁻¹	B3
2.53 nM	0.0121 s⁻¹	4.76e+06 M⁻¹ s⁻¹	B9
8.1 nM	0.0155 s⁻¹	1.91e+06 M⁻¹ s⁻¹	B4

Each binder was assayed against T1, GST-human NOGO-A56 (assay: SPR (Biacore), GST-human NOGO-A56 immobilised, purified antibody as analyte; mean (SD) of 12 runs).

Kd	koff	kon	Binder
1.9 nM	0.00754 s⁻¹	3.92e+06 M⁻¹ s⁻¹	B1
1.86 nM	0.0102 s⁻¹	5.43e+06 M⁻¹ s⁻¹	B5

These binders were tested against T1, GST-human NOGO-A56 (assay: SPR (Biacore T100), reverse format: antibody captured on Protein A, human NOGO 5+6 GST as analyte, 1:1 model; mean (SD) of 5 or 6 runs).

Kd	koff	kon	Binder
0.41 nM	0.000569 s⁻¹	1.38e+06 M⁻¹ s⁻¹	B1
0.31 nM	0.000313 s⁻¹	1.01e+06 M⁻¹ s⁻¹	B5

These binders were tested against T1, GST-human NOGO-A56 (assay: SPR off-rate ranking, supernatant from small-scale transient transfection over immobilised GST-human NOGO-A56; single experiment).

koff	Binder
0.00392 s⁻¹	B1
0.00342 s⁻¹	B10
0.00569 s⁻¹	B11
0.00595 s⁻¹	B12
0.00507 s⁻¹	B13
0.00383 s⁻¹	B14
0.00778 s⁻¹	B2
0.0196 s⁻¹	B3
0.012 s⁻¹	B15
0.013 s⁻¹	B16
0.0138 s⁻¹	B9
0.00873 s⁻¹	B17
0.00566 s⁻¹	B18
0.00577 s⁻¹	B8
0.00956 s⁻¹	B19
0.00718 s⁻¹	B5
0.00585 s⁻¹	B6
0.00606 s⁻¹	B7
0.00467 s⁻¹	B20
0.00996 s⁻¹	B21
